assay: yeast display, Sf9 membrane polyspecificity reagent, FACS + sequencing; frameworks hold sequencing errors
Procedure, shortened: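 Synthetic nanobody libraries on Saccharomyces cerevisiae BJ5465 were galactose-induced for 36–48 hours, stained 1 hour at 4 °C with 10% biotinylated, detergent-solubilized Sf9 membrane reagent and enriched on streptavidin microbeads. FACS then separated cells into low and high (top ~1%) gates by anti-HA (expression) and streptavidin (reagent binding) fluorescence. Genes were colony-PCR amplified, MiSeq 2 × 250 sequenced and CDR-length filtered. A clone's polyreactivity label is that of its gate of origin.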

Sequence | polyreactivity (PSR sort gate)
QVQLVESGGGLVQAGGSLRLSCAASGGTFYGYAAMGWYRQAPGKERELVAAISRSGGRTYYADSVKGRFTISRDNAKNTVYLQMNSLKPEDTAVYDCNVGFYPYSFLTFQGGDYWGQGTQVTVSS | high polyreactivity
QVQLVESGGGLVQAGGSLRLSCAASGGTFYGYAMGWYRQAPGKERELVAAINYRGGRTYYADSVKGRFTISRDNAKNTVYLQMNSLKPEDTAVYYCAATSYRLDGYDYWGQGTQVTVSS | high polyreactivity
QVQLVESGGGLVQAGGSLRLSCAASGGTFYGYAMGWYRQAPGKERELVAAITSGDSTNYADSVKGRFTISRDNAKNTVYLQMNNLKPEDTAVYYCAAGDPTLLNESFDYWGQGTQVTVSS | low polyreactivity
QVQLVESGGGLVQAGGSLRLSCAASGGTFYHNVMGWYRQAPGKERELVAAIRYSGGRTYYADSVKGRFTLSRDNAKNTVYLQMNSLKPEDTAVYYCAVRSYYGPFGYWGQGTQVTVSS | high polyreactivity
QVQLVESGGGLVQAGGSLRLSCAASGGTFYLNAMGWYRQAAGKERELVAGISWGGGRTYYADSVKGRFTISRDNAKNTVYLQMNSLKPEDTAVYYCAAGAWRGPYSGYYYWGQGTQVTVSS | low polyreactivity
QVQLVESGGGLVQAGGSLRLSCAASGGTFYLNAMGWYRQAPGKERELVAGITWGGGRTYYADSVKGRFTISRDNAKNTVYLQMNSLKQEDTEVYYCAAGAWRGPYSGYYYWGQGTQVTVSS | low polyreactivity
QVQLVESGGGLVQAGGSLRLSCAASGGTFYNYAMGWYRQAPGKERELVAAISTSGTSTYYADSVKGRFTISRDNAKNTVYLQMNSLKPEDTAVYYCAARGLRVSSRGYYWGQGTQVTVSS | high polyreactivity
QVQLVESGGGLVQAGGSLRLSCAASGGTFYRYAMGWYRQAPGKERELVAAISRGGSTTYADSVKGRFTISRDNAKNTVYLQMNSLKPEDTAVYYCAARYRCSLPAGLRLLGQGTQVTVSS | high polyreactivity
QVQLVESGGGLVQAGGSLRLSCAASGGTFYVNALGWYRQAAGKERELVAAISYSGGNTYYADSVKGRFTISRDNAKNTVYLQMNSLKPEDTAVYYCAGEVFPWWGDDYWGQGTQVTVSS | low polyreactivity
QVQLVESGGGLVQAGGSLRLSCAASGGTFYYYAMGWYRQAPGKERELVAAITRSGGNTYYADSVKGRFTISRDNAKNTVYLQMNSLKPEDTAVYYCAAPFVKFVGSLVYAGYDSWGQGTQVTVSS | low polyreactivity
QVQLVESGGGLVQAGGSLRLSCAASGGTIAFNGMGWYRQAPAKERELVAAITWRSGSTYYADSVKGRFTISRDNAKNTVYLQMNSLKPEDTAVYYCAARLYRYTPFDYWGQGTQVTVSS | high polyreactivity
QVQLVESGGGLVQAGGSLRLSCAASGGTIAPYAMVWYRQAPGKERELVATISYSGTSTNYADSVKGRFTITRDNAKNTVYLQMNSLKPEDTAVYYCYAVLYARQRDRWARYDYWGQGTQVTVSS | high polyreactivity
QVQLVESGGGLVQAGGSLRLSCAASGGTIDYAMGWYSQAPGKERELVAAISKHGGRTYYADSVKGRFTISRDNAKYTVYLQMNSLKPEDTAVYYCAADAFRGFYWGQGTQVTVSS | high polyreactivity
QVQLVESGGGLVQAGGSLRLSCAASGGTITPYAMGWYRQAPGKERELVAAISRSGARTYYADSVKGRFTISRDNAKNTVYLQMNSLKPEDTAVYYCAKTFSGYRFDYWGQGTQVTVSS | high polyreactivity
QVQLVESGGGLVQAGGSLRLSCAASGGTIVWNAMGWYRQAPGKEREFVAAITSSGGSTYYADSVKGRFTITRDYAKNTVYLQINSLKPEDTAVDYCNVDTHSSYEFNSWGQGTQVTVSS | low polyreactivity
QVQLVESGGGLVQAGGSLRLSCAASGGTLKYYAMGWYRQAPGKEREVVATISSRGGSTYYADSVKGRFTISRDNAKNTVYLQMNSLKPEDTAVYYCARRYWVQSRYPEMDYWGQGTQVTVSS | high polyreactivity
QVQLVESGGGLVQAGGSLRLSCAASGGTLVPNAMGWYRPAPGKERELVAGISGSGGSTYYADSVKGRFTISRDNAKNTVYLQMNSLKPEDTAVYYCNADRYVPYYEPEMDYWGQGTQVTVSS | low polyreactivity
QVQLVESGGGLVQAGGSLRLSCAASGGTVTYNAMGWYRQAPGKERELVAAITNGGGSTYYADSVKGRFTISRDYAKNTVYLQMNSLKPEDTAVYYCAARWWYYYTEYDYWGQGTQVTVSS | low polyreactivity
QVQLVESGGGLVQAGGSLRLSCAASGHIFFYYTMGWYRQAPGKERELVAGITIGGSTNYADSVKGRFTISRDNAKNTVYLQMNSLKPEDSAVYYCNVVKYVYIYSYWEYYYWGQGTQVTVSS | low polyreactivity
QVQLVESGGGLVQAGGSLRLSCAASGHIFSYYAMGWYRQAPGKERELVAAISSSGSSTYYADSVKGRFTISRDNAKNTVYLQMNSLKPEDTAVYYCNAPYIAWYDGDYWGQGTQVTVSS | low polyreactivity
QVQLVESGGGLVQAGGSLRLSCAASGHIFTRNSMGWYRQAPGKERELVAAISRTGGSTYYADSVKGRFTISRDNAKNTVYLQMNSLKPEDTAVYDCAKRRQASEDYWGQGTQVTVSS | high polyreactivity
QVQLVESGGGLVQAGGSLRLSCAASGHILFKYTMGWYRQAPGKERELVAAISRSGGTTYYADSVKGRFTISRDNAKNTVYLQMNSLKPEDTAVYYCAARVTPGRNGGGYWGQGTQVTVSS | high polyreactivity

Sequence | polyreactivity (PSR sort gate)
QVQLVESGGGLVQAGGSLRLSCAASGHIYFYYTMGWYRQAPGKERDLVAGITIGGSTNYADSVKGRFTISRDNAKNTVYLQMNSLKPEDTAVYYCNVVKYVYIYSYWEYYYWGQGTQVTVSS | low polyreactivity
QVQLVESGGGLVQAGGSLRLSCAASGHIYVRYAMGWYRQAPGKERELVAAITSGGSTYYADSVKGRFTISRDNAKNTVYLQMNSLKPEDTAVYYCAARKQQYRFTHDYWGQGTQVTVSS | high polyreactivity
QVQLVESGGGLVQAGGSLRLSCAASGIAYTYNAMGWYRQAPGKERELVASISRTGGSTRYADSVKGRFTISRDNAKNTFYLQMNSLKPEDTAVYYCAALSWRYVKYRFDYWGQGTQVTVSS | high polyreactivity
QVQLVESGGGLVQAGGSLRLSCAASGIFIDSNAMGWNRQAPGKERELVAAITSGGSTKYADSVKGRFTISRDTAKNTVYLQMNSLKPVDTAVYYCNAGPAVRSAYSTPYYDYWGLGTQVTVSS | low polyreactivity
QVQLVESGGGLVQAGGSLRLSCAASGIFLVYAMGWYRQAPGKERELVAAIRSDASTNYADSVKWRFTISRDNAKKTVYLQMNILKPEDSAVYYCNTAQLVSDEFDYWGQGTQVTVSS | low polyreactivity
QVQLVESGGGLVQAGGSLRLSCAASGIFRSNTMGWYRQAPGKERELVATISRRSGSTYYADSVKGRFTISRDNAKNTVYLQMNSLKPEDTAVYYCAAAAPRRKYDYWGQGTQVTVSS | high polyreactivity
QVQLVESGGGLVQAGGSLRLSCAASGIFSHYALGWYRQAPGKERELVAAISSSGGRTYYADSVKGRFTISRDNAKNTVYLQMNSLKPEDTAVYYCAAPWRSSPYHFYYWGQGTQVTVSS | high polyreactivity
QVQLVESGGGLVQAGGSLRLSCAASGIFSRYAMGWYIQAPGKERELVAAISSGDSTNYADSVKGRFTISRDNAKNTVYLQMNSLKPEDTAVYYCATERSHLATGQGYYYVQTFYYWGQGTQVTVSS | low polyreactivity
QVQLVESGGGLVQAGGSLRLSCAASGIFSYYAMGWYRQAPGKERELVAAISSSGGSTYYADSVKGRFTISRDNAKNTVYLQMNSLKPEDTAVYYCNVRNYYNDYYYWGQGTQVTVSS | high polyreactivity
QVQLVESGGGLVQAGGSLRLSCAASGIFTRYVMGWYRQAPGKERELVAAITANGGRTYYADSVKGRFTISRDNAKNTVYLQMNSLKPEDTAVYYCNADWRWKWSSRGGYWGQGTQVTVSS | high polyreactivity
QVQLVESGGGLVQAGGSLRLSCAASGIFVGNAMGWYRQAPGKERELVAAITGDGDSTYYADSVKGRFTISRDNAKNTVYLQMNSLKPEDNAVYYCNTVFDTIVDKYYYWGQGTQVTVSS | low polyreactivity
QVQLVESGGGLVQAGGSLRLSCAASGIFVYYAMGWYRQAPGKERELVAAISSTGTSTYYADSVKGRFTISRDNAKNTVYLQMNSLKPEDTAVYYCAARGYAKRGYWGQGTQVTVSS | high polyreactivity
QVQLVESGGGLVQAGGSLRLSCAASGIHFRSNAMGWYRQAPGKERELVAAISGRGGRTYYADSVKGRFTISRDNAKNTVYLQMNSLKPEDTAVYYCARESYLGATYPKAYGPYYYWGQGTQVTVSS | high polyreactivity
QVQLVESGGGLVQAGGSLRLSCAASGIICWWNTMGWYRQAPGKERELVATITRGGSTYYADSVKGRFTISRDNAKNTVYLQMNSLKPEDTAVYYCNAVQYKYLAKSYDYWGQGTQVTVSS | low polyreactivity
QVQLVESGGGLVQAGGSLRLSCAASGIIFADNDMGWYRQAPVKERELVATISSAGNTNYADSVKGRFTISRDNAKNTVYLQMNSLKPEDTAVYYCAVVYYIPLLPPWIYEYDYWGQGTQVTVSS | low polyreactivity
QVQLVESGGGLVQAGGSLRLSCAASGIIFADYAMGWYIQAPGKERELVAAISTSGGSTYYADSVKGRFTISRDNAKNPVYLQMNSLKPEDTAVYYCNAVYYTSYSGYQFVYEYDYWGQGTQVTVSS | low polyreactivity
QVQLVESGGGLVQAGGSLRLSCAASGIIFALNAMGWYRQAPGKERELVATIDSTSGSTYYADSVKGRFTISRDNAKNTVYLQMNSLKPEDTAVYYCAVVHAQSAPMDYWGQGTQVTVSS | low polyreactivity
QVQLVESGGGLVQAGGSLRLSCAASGIIFAQYTMGWYRQAPGKERELVAAINRNGGSTYYADSVKGRFTISRDNAKNTVYLQMNSLKPEDNAVYYCIADALGFRFDYWGQGTQVTVSS | low polyreactivity
QVQLVESGGGLVQAGGSLRLSCAASGIIFARNAMGWYRQAPGKERELVATISRNGGRTYYADSVKGRFTISRDNAKNTVYLQMNSLKPEDTAVYYCARPYYGSWHSYGVDYWGQGTQVTVSS | high polyreactivity
QVQLVESGGGLVQAGGSLRLSCAASGIIFARYAMGWYRQAPGKERELVAAISNRGTSTYYADSVKGRFTISRDNAKNTVYLQMNSLKPEDTAVYYCKRVKDGYWGQGTQVTVSS | high polyreactivity
QVQLVESGGGLVQAGGSLRLSCAASGIIFARYAMGWYRQAPGKERELVAAITRRAVSTYYADSVKGRFTISRDNAKNTVYLQMNSLKPEDTAVYYCAADRASYFTYAYGYWGQGTQVTVSS | high polyreactivity

Source: the nanobody polyreactivity screen of Harvey et al. (2022)
